Reference: FireProtDB (doi:10.1093/protein/12.10.841)
Where “and” joins values, the source holds several entries; their conditions need not be identical. Equal values may be shown once.

B1: Lysozyme C, P61626 (parent)
chain: MKALIVLGLVLLSVTVQGKVFERCELARTLKRLGMDGYRGISLANWMCLAKWESGYNTRATNYNAGDRSTDYGIFQINSRYWCNDGKTPGAVNACHLSCSALLQDNIADAVACAKRVVRDPQGIRAWVAWRNRCQNRDVRQYVQGCGV

Variants of: B1
Conditions: Homo sapiens; pH 2.4; Thermal; DSC; glycine 0.05 M; reversible: yes; structure 1LZ1; whole UniProt chain shown

Variant	Tm [°C]	heat capacity change of unfolding [kcal/mol/K]	unfolding enthalpy (calorimetric) [kcal/mol]	unfolding enthalpy (van 't Hoff) [kcal/mol]
I77T	52.9	1.65	90.3	98.7

Same assay, conditions: Homo sapiens; pH 2.62; Thermal; DSC; glycine 0.05 M; reversible: yes; structure 1LZ1; whole UniProt chain shown

Variant	Tm [°C]	heat capacity change of unfolding [kcal/mol/K]	unfolding enthalpy (calorimetric) [kcal/mol]	unfolding enthalpy (van 't Hoff) [kcal/mol]
I77T	56.9	1.67	104	105

Same assay, conditions: Homo sapiens; pH 2.7; 64.9 °C; Thermal; DSC; glycine 0.05 M; reversible: yes; structure 1LZ1; whole UniProt chain shown

Variant	ddG of mutation (higher = less stable) [kcal/mol]
I77T	2.22
I77S	3.59
I77A	1.72
I77V	1.1
I77L	0

Same assay, conditions: Homo sapiens; pH 2.7; Thermal; DSC; glycine 0.05 M; reversible: yes; structure 1LZ1; whole UniProt chain shown

Variant	Tm	change of melting temperature, mutant - wild type (higher = more stable) [°C]	heat capacity change of unfolding	unfolding enthalpy (calorimetric)	unfolding enthalpy (van 't Hoff)
I77T	64.9 °C				
I77S		-11.8	1.2 kcal/mol/K and 1.34 kcal/mol/K	90.8 kcal/mol and 107 kcal/mol	96.8 kcal/mol and 114 kcal/mol
I77A	59.7 °C	-5.2	1.46 kcal/mol/K	115 kcal/mol	121 kcal/mol
I77V	61.5 °C and 64.9 °C	-3.4	1.2 kcal/mol/K	110 kcal/mol	117 kcal/mol
I77M	60.7 °C and 64.9 °C	-4.2	1.27 kcal/mol/K	106 kcal/mol	115 kcal/mol
I77L	64.9 °C	0	1.27 kcal/mol/K	114 kcal/mol	122 kcal/mol

Same assay, conditions: Homo sapiens; pH 2.8; Thermal; DSC; glycine 0.05 M; reversible: yes; structure 1LZ1; whole UniProt chain shown

Variant	Tm [°C]	heat capacity change of unfolding [kcal/mol/K]	unfolding enthalpy (calorimetric) [kcal/mol]	unfolding enthalpy (van 't Hoff) [kcal/mol]
I77T	59.5	1.17	106	110
I77M	62	1.2	103	110

Same assay, conditions: Homo sapiens; pH 2.99; Thermal; DSC; glycine 0.05 M; reversible: yes; structure 1LZ1; whole UniProt chain shown

Variant	Tm [°C]	heat capacity change of unfolding [kcal/mol/K]	unfolding enthalpy (calorimetric) [kcal/mol]	unfolding enthalpy (van 't Hoff) [kcal/mol]
I77T	62.9	1.39	107	107

Same assay, conditions: Homo sapiens; pH 3.15; Thermal; DSC; glycine 0.05 M; reversible: yes; structure 1LZ1; whole UniProt chain shown

Variant	Tm [°C]	heat capacity change of unfolding [kcal/mol/K]	unfolding enthalpy (calorimetric) [kcal/mol]	unfolding enthalpy (van 't Hoff) [kcal/mol]
I77T	64.9	1.2	111	119

Same assay, conditions: Homo sapiens; pH 2.51; Thermal; DSC; glycine 0.05 M; reversible: yes; structure 1LZ1; whole UniProt chain shown

Variant	Tm [°C]	heat capacity change of unfolding [kcal/mol/K]	unfolding enthalpy (calorimetric) [kcal/mol]	unfolding enthalpy (van 't Hoff) [kcal/mol]
I77S	50.2	1.27	87	92.7
I77L	61.4	1.12	109	117

Same assay, conditions: Homo sapiens; pH 2.84; Thermal; DSC; glycine 0.05 M; reversible: yes; structure 1LZ1; whole UniProt chain shown

Variant	Tm [°C]	heat capacity change of unfolding [kcal/mol/K]	unfolding enthalpy (calorimetric) [kcal/mol]	unfolding enthalpy (van 't Hoff) [kcal/mol]
I77S	55.3	1.55	94.7	99.9

Same assay, conditions: Homo sapiens; pH 3.04; Thermal; DSC; glycine 0.05 M; reversible: yes; structure 1LZ1; whole UniProt chain shown

Variant	Tm [°C]	heat capacity change of unfolding [kcal/mol/K]	unfolding enthalpy (calorimetric) [kcal/mol]	unfolding enthalpy (van 't Hoff) [kcal/mol]
I77S	58.2	1.48	98.2	104

Same assay, conditions: Homo sapiens; pH 3.17; Thermal; DSC; glycine 0.05 M; reversible: yes; structure 1LZ1; whole UniProt chain shown

Variant	Tm [°C]	heat capacity change of unfolding [kcal/mol/K]	unfolding enthalpy (calorimetric) [kcal/mol]	unfolding enthalpy (van 't Hoff) [kcal/mol]
I77S	60	1.24	99.9	106
I77L	72.1	1.24	123	132

Same assay, conditions: Homo sapiens; pH 2.65; Thermal; DSC; glycine 0.05 M; reversible: yes; structure 1LZ1; whole UniProt chain shown

Variant	Tm [°C]	heat capacity change of unfolding [kcal/mol/K]	unfolding enthalpy (calorimetric) [kcal/mol]	unfolding enthalpy (van 't Hoff) [kcal/mol]
I77M	59.9	1	98.5	108

Same assay, conditions: Homo sapiens; pH 2.95; Thermal; DSC; glycine 0.05 M; reversible: yes; structure 1LZ1; whole UniProt chain shown

Variant	Tm [°C]	heat capacity change of unfolding [kcal/mol/K]	unfolding enthalpy (calorimetric) [kcal/mol]	unfolding enthalpy (van 't Hoff) [kcal/mol]
I77M	64.8	1.1	106	114

Same assay, conditions: Homo sapiens; pH 3.13; Thermal; DSC; glycine 0.05 M; reversible: yes; structure 1LZ1; whole UniProt chain shown

Variant	Tm [°C]	heat capacity change of unfolding [kcal/mol/K]	unfolding enthalpy (calorimetric) [kcal/mol]	unfolding enthalpy (van 't Hoff) [kcal/mol]
I77M	66.5	1.15	107	117

Same assay, conditions: Homo sapiens; pH 2.66; Thermal; DSC; glycine 0.05 M; reversible: yes; structure 1LZ1; whole UniProt chain shown

Variant	Tm [°C]	heat capacity change of unfolding [kcal/mol/K]	unfolding enthalpy (calorimetric) [kcal/mol]	unfolding enthalpy (van 't Hoff) [kcal/mol]
I77L	64.5	1.17	113	122

Same assay, conditions: Homo sapiens; pH 2.83; Thermal; DSC; glycine 0.05 M; reversible: yes; structure 1LZ1; whole UniProt chain shown

Variant	Tm [°C]	heat capacity change of unfolding [kcal/mol/K]	unfolding enthalpy (calorimetric) [kcal/mol]	unfolding enthalpy (van 't Hoff) [kcal/mol]
I77L	67	1.17	116	126

Same assay, conditions: Homo sapiens; pH 2.96; Thermal; DSC; glycine 0.05 M; reversible: yes; structure 1LZ1; whole UniProt chain shown

Variant	Tm [°C]	heat capacity change of unfolding [kcal/mol/K]	unfolding enthalpy (calorimetric) [kcal/mol]	unfolding enthalpy (van 't Hoff) [kcal/mol]
I77L	69.8	1.31	119	128
